The term koff denotes a measure of how fast the partners let go of each other. The term Kd denotes the constant that tells how readily two partners part at equilibrium. As a reminder, the kon is the second-order rate constant of association.

We go through one molecule from patent US20190144537A1 (AVEO PHARMACEUTICALS, published 2019).

For assay [1], the target named is T1, murine Notch3 on the cell surface (murine, UniProt Q61982 40-2318).
T1 construct: whole, on cells; also called mNotch3; full length murine Notch3
The assay can be described thus: FACS on FlpIn CHO cells expressing full length murine Notch3, 5 ug/ml antibody, anti-human PE secondary antibody. On the procedure: (§1) Full length Notch receptor cDNAs cloned into pcDNA5FRT were transfected into FlpIn™ CHO cells and selected with 600 μg/ml hygromycin (Sigma), according to the manufacturer's protocol. Cell surface expression of Notch receptors is confirmed by FACS analysis using anti-Notch1 PE, anti-Notch2 PE or anti-Notch3 PE control antibodies (Biolegend). […] FACS is performed on a BD FACSCanto II cell analyzer (BD Biosciences) and analyzed using FlowJo software.

The target of assay [2] is T2, recombinant human Notch3 extracellular domain (containing EGF like domains 1-11) Fc fusion protein (human, UniProt Q9UM47 40-467).
T2 construct: Bought from R&D Systems; also called rhNotch3-Fc; Notch3-Fc; not shown: Fc of the bought fusion protein
T2 sequence: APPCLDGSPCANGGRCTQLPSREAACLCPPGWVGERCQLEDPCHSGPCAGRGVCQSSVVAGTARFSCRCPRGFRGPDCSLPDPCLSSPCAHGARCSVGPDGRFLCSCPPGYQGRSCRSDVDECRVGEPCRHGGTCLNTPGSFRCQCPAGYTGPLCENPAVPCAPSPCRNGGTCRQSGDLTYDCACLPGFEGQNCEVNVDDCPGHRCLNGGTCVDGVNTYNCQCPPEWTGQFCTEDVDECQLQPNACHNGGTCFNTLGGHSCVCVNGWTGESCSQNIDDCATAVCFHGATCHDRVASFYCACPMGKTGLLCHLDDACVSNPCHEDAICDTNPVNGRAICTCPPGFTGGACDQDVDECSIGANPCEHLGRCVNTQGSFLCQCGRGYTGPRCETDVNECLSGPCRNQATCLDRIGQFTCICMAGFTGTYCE
Description: SPR (Biacore), 28042 captured as ligand, rhNotch3-Fc injected as sample, 25 C, 1:1 binding fit; the same fit is printed under the Notch3 sensorgram as kd 2.580E-4. On the procedure:
(§2) Rabbit anti-mouse IgGs (GE Healthcare) are immobilized on carboxymethylated dextran CM4 sensor chips (GE Healthcare) by amine coupling, according to a standard protocol. Analyses are performed at 25° C. and 37° C. using PBS containing 0.05% surfactant P20 as running buffer. The antibody is captured in individual flow cells at a flow rate of 10 μL/minute. Injection time is varied for each antibody to yield an R max between 30 and 60 RU. 250 μg/mL human IgG Fc is injected to block non-specific binding of Fc (from the Notch3 fusion protein) to the capture antibody. Buffer or rhNotch1-Fc (R&D Systems, Minneapolis, Minn.; Cat. No. 3647-TK-050), rhNotch2-Fc (R&D Cat. No. 3735-NT-050), and rhNotch3-Fc (R&D Cat. No. 1559-NT-050), diluted in running buffer is injected sequentially over a reference surface (no antibody captured) and the active surface (antibody to be tested) for 240 seconds at 60 μL/minute. The dissociation phase is monitored for up to 1500 seconds. The surface is then regenerated with two 60-second injections of 10 mM Glycine-HCl, pH 2.25, at a flow rate of 30 μL/minute. The rhNotch3-Fc, rhNotch2-Fc, and rhNotch1-Fc concentration range tested are 100 nM to 3.125 nM (2 fold dilution).

Assay [3] concerns the target T2, recombinant human Notch3 extracellular …. Description: SPR (Biacore T100), antibody captured by goat anti-human IgG, rhNotch3-Fc injected, 37° C. On the procedure:
(§3) Goat anti-human IgG is immobilized on carboxymethylated dextran CM4 sensor chips (GE Healthcare) by amine coupling, according to a standard protocol. Analyses are performed at 25° C. and 37° C. using PBS containing 0.05% surfactant P20 as running buffer. The antibody is captured in individual flow cells at a flow rate of 10 μl/minute. Injection time is varied for each antibody to yield an R max between 30 and 60 resonance units (RU). 250 μg/mL human IgG Fc is injected to block non-specific binding of Fc (from the Notch3 fusion protein) to the capture antibody. Buffer or rhNotch3-Fc diluted in running buffer is injected sequentially over a reference surface (no antibody captured) and the active surface (antibody to be tested) for 240 seconds at 60 μL/minute. The dissociation phase is monitored for up to 1500 seconds. The surface is then regenerated with two 60-second injections of 10 mM Glycine-HCl, pH 2.25, at a flow rate of 30 μL/minute. The rhNotch3-Fc concentration range tested is 100 nM to 3.125 nM (2 fold dilution).
(§4) Kinetic parameters can be determined using the kinetic function of the BIAevaluation software (GE Healthcare) with double reference subtraction. Kinetic parameters for the antibody, kₐ (association rate constant), kd (dissociation rate constant) and KD (equilibrium dissociation constant) are determined.
(Surface plasmon resonance follows binding to a sensor surface in real time, without labels.)

The target in assay [4] is T3, human Notch3 on the cell surface (human, UniProt Q9UM47 40-2321). The assay can be described thus: cell-based or functional assay.
The next assay has as its target T4, rhNotch1-Fc (human, UniProt P46531 19-1735).
T4 construct: extracellular domain; Bought from R&D Systems; also called R&D Cat. No. 3647-TK-050; not shown: Fc of the bought fusion protein
Description: SPR (Biacore), 28042 captured as ligand, rhNotch1-Fc as sample, 25 C; software 1:1 fit printed under a sensorgram that stays below about 1.5; the drawn table gives '-' for this pair. How it is done: as §2

The next assay addresses T5, cynoNotch3 monomer (cyno).
T5 construct: Only named as 'cynoNotch3 monomer'
The assay can be described thus: binding to cynoNotch3 monomer at 25° C., protocol similar to that for hNotch3 (method not named).

Assay [5] has as its target T2, recombinant human Notch3 extracellular …. The assay can be described thus: SPR (Biacore), 28042 captured as ligand, rhNotch3-Fc injected as sample, 25 C, 1:1 binding fit; the same fit is printed under the Notch3 sensorgram as ka 2.720E+5. On the procedure:
as §2

For assay [6] the target is unchanged. The assay can be described thus: SPR (Biacore), 28042 captured as ligand, rhNotch3-Fc injected as sample, 25 C, 1:1 binding fit. On the procedure: as §2
The target is the same in assay [7]. The assay can be described thus: SPR (Biacore T100), antibody captured by goat anti-human IgG, rhNotch3-Fc injected, 25° C. How it is done: as §3, §4
Assay [8] addresses T6, human Notch2 on the cell surface (human, UniProt Q04721 26-2471).
T6 construct: whole, on cells; also called cell surface human Notch2; full length human Notch2
Description: FACS on FlpIn CHO cells expressing full length human Notch2, anti-human PE secondary antibody. On the procedure: as §1

Assay [9] has as its target T7, human Notch1 on the cell surface (human, UniProt P46531 19-2555).
T7 construct: whole, on cells; also called cell surface human Notch1; full length human Notch1
The assay can be described thus: FACS on FlpIn CHO cells expressing full length human Notch1, anti-human PE secondary antibody. On the procedure:
as §1

The target of assay [10] is T3, human Notch3 on the cell surface. Description: FACS at 4° C. on cells expressing human Notch3, one site binding fit; cell line not stated. An excerpt: CHO N3 (Flp-In-CHO cells (Invitrogen) stably transfected with human Notch3), HCC2429 cells, and RL-952 cells expressing human Notch3 are washed once with PBS containing calcium chloride and magnesium chloride (Invitrogen) and harvested using cell dissociation buffer (Invitrogen). Cells are washed a second time with PBS and resuspended in FACS buffer (PBS with 0.5% BSA (Sigma-Aldrich)) for a final cell concentration of 250,000 cells per well into a 96-well v-bottom plate. Purified antibodies are diluted in FACS buffer over a concentration range of 100 nM to 0 nM. Cells are then incubated at 4° C. with 100 μL of antibody for one hour, washed with FACS buffer twice, and resuspended in 100 μL of goat-anti mouse PE-conjugated antibody (Jackson Immuno Research). Cells are incubated at 4° C. for 30 minutes in the dark, washed once with FACS buffer, and then analyzed using a Beckman Coulter Cytomics FC 500 instrument. The geometric mean of the florescent intensity then is calculated for each antibody concentration. These values then are entered into Prism software (GraphPad, La Jolla, Calif.) and used to generate a binding curve by plotting geometric mean versus antibody concentration.

T4 sequence (P46531 19-1735): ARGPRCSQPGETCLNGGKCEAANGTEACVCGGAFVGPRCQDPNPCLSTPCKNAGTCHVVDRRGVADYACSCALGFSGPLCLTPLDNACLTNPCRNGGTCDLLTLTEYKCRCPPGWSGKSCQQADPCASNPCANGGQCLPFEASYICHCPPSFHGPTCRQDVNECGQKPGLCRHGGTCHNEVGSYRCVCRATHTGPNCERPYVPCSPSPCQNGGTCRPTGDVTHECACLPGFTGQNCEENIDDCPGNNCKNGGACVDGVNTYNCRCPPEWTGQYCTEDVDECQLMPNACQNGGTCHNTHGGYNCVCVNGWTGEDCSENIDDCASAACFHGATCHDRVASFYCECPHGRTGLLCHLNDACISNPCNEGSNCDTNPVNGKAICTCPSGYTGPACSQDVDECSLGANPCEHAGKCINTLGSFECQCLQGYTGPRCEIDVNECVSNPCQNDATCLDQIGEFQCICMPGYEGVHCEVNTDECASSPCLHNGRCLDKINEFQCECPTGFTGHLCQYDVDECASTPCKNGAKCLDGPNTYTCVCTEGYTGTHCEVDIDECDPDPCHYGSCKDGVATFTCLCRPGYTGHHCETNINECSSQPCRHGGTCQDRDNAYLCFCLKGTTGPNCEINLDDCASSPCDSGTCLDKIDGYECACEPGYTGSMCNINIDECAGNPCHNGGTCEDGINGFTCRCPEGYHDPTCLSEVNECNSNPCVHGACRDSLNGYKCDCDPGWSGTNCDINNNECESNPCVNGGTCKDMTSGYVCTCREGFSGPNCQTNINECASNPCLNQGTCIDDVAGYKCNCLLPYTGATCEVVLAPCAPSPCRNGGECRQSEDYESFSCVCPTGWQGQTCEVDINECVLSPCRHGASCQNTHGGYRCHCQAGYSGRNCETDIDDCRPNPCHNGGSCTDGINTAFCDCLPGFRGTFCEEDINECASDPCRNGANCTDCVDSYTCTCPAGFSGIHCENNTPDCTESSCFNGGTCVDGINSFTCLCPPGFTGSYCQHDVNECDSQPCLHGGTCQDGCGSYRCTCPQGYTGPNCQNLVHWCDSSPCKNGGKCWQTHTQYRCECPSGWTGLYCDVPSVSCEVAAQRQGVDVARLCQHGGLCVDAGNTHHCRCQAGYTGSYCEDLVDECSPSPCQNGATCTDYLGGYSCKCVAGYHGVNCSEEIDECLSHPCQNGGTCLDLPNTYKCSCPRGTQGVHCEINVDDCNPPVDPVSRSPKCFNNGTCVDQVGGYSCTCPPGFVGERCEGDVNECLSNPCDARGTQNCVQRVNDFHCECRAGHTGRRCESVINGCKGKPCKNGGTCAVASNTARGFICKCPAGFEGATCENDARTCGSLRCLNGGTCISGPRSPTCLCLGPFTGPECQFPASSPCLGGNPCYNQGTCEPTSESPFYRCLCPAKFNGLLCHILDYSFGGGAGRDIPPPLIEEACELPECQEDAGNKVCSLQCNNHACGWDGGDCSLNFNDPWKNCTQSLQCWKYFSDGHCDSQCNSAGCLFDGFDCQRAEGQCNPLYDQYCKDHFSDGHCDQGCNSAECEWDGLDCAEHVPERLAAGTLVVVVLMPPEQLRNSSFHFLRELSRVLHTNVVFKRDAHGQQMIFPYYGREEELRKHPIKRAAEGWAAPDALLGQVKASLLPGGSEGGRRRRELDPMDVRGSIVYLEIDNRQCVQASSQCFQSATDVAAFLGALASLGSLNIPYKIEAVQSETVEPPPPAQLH
T6 sequence (Q04721 26-2471): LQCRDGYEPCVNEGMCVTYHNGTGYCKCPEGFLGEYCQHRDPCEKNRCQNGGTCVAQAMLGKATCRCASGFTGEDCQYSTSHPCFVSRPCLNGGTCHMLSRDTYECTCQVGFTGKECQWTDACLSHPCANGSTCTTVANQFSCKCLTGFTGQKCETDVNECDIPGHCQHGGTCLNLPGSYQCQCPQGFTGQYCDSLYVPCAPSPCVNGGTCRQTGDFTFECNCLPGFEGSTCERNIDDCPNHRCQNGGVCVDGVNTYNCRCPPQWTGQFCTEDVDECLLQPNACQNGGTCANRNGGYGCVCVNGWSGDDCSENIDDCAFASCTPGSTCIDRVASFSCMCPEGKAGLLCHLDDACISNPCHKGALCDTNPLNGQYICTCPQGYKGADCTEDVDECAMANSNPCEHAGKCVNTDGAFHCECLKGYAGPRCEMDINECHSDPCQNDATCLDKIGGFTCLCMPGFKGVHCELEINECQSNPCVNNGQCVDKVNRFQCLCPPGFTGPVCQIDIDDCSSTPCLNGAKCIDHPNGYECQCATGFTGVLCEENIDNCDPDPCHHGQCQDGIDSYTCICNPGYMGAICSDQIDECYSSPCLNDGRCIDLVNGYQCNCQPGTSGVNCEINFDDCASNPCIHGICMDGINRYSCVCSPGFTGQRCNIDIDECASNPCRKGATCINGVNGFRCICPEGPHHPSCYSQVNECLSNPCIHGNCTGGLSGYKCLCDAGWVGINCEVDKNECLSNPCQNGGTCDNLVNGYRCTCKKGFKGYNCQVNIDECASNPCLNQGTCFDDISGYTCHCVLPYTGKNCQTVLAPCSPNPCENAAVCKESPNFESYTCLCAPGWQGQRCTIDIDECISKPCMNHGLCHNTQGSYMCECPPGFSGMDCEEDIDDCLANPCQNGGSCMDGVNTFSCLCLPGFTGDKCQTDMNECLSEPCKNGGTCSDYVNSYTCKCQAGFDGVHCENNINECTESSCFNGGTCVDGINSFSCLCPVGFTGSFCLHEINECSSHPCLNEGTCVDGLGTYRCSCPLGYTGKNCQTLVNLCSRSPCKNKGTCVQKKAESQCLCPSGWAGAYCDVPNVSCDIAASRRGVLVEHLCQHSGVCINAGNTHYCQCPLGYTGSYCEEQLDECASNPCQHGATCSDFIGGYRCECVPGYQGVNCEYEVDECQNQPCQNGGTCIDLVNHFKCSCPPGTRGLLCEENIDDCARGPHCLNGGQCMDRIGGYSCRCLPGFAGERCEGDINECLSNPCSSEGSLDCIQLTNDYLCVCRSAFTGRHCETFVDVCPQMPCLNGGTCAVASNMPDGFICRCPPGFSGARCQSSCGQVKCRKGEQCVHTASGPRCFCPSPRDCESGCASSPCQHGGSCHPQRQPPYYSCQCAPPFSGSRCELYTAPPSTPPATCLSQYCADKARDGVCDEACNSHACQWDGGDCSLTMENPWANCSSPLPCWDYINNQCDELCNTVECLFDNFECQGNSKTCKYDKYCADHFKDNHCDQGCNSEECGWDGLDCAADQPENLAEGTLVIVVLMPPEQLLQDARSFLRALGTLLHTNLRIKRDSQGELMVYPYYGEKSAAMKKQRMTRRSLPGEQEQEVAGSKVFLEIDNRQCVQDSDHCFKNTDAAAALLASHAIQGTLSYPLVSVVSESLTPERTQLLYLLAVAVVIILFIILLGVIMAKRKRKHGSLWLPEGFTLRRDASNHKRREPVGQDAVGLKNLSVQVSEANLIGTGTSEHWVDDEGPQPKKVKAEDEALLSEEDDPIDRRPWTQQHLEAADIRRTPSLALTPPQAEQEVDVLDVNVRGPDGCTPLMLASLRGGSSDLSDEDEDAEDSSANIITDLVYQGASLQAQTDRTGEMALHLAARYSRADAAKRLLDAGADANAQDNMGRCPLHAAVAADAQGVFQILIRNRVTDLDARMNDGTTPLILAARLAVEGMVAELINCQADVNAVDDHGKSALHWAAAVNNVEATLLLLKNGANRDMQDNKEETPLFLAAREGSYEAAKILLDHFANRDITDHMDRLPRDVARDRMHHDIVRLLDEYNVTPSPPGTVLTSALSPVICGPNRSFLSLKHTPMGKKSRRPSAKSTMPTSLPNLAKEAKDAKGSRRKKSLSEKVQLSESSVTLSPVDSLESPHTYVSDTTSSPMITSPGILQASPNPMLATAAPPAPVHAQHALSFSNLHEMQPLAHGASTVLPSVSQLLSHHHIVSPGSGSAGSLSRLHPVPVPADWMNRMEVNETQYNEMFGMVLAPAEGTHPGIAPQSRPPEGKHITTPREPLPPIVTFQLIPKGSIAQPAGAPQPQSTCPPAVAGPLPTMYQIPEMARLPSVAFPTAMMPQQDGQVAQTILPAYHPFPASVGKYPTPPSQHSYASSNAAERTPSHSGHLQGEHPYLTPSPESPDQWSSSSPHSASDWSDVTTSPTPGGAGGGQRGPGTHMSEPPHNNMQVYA

B1: 28042 antibody (antibody, human IgG1, kappa, V domains shown)
VH: EVQLLESGGGLVQPGGSLRLSCAASGFTFSDYMMSWVRQAPGKGLEWVSWIRSSGGTTLYADSVKGRFTISRDNSKNTLYLQMNSLRAEDTATYYCARVGGGTTGYAFDIWGQGTMVTVSS
VL: DIQMTQSPSSLSASVGDRVTITCRASQSISNYLNWYQQKPGKAPKLLIYGASSLQSGVPSRVSGTGSGTDFTLTISSLQPEDFATYYCQQSYSPSFTFGPGTKVDFER
With B1, the binding result in assay [1] is reported as “binds”; in assay [8] it was “no binding”; in assay [9], “no binding”. Besides, the koff in assay [2] is 0.000258 s⁻¹; in [3] it was 0.000396 s⁻¹; with rhNotch1-Fc, 0.000313 s⁻¹; in assay [7], 0.000299 s⁻¹. In addition, the equilibrium dissociation constant (Kd) in assay [3] came out at 4.18 nM; in the assay with cynoNotch3 monomer it was 806 nM; in assay [6] it was 0.948 nM; in assay [7] it was 2.55 nM; in assay [10], 2.72 nM. Also, the kon in assay [3] came out at 94700 M⁻¹ s⁻¹; with rhNotch1-Fc, 104000 M⁻¹ s⁻¹; in assay [5] it was 272000 M⁻¹ s⁻¹; in [7], 177000 M⁻¹ s⁻¹. In addition, the “IC50; % inhibition of hJag2-mFc-stimulated RBP-Jk luciferase reporter activity in MDA-MB-468 cells with endogenous human Notch3” value in assay [4] is 0.53 ug/ml (unit taken from the x axis 'log (ug/ml)'; the table prints none). Besides, in assay [4], the “LogIC50; same reporter assay” value was -0.276 log (ug/ml).
